In patent publication US6521748B2, “Polynucleotide encoding a mutant Rhodotorula glutinis tyrosine ammonia lyase polypeptide” (E. I. du Pont de Nemours and Company, priority 1999, dated 2003):
Positions count from the first letter of the chain named. Where two headings read alike, the source gives them in different places.

Tests used:
[1] = test system: tyrosine-auxotrophic E. coli strain AT2471 containing pCA18Km; assay: Toxicity of PHCA to tyrosine-auxotrophic E. coli on minimal plate; type: cell-based; set-up: key to cell growth: −: no growth; +: very poor growth; ++: poor growth; +++: good growth; conditions: for cell growth: 0.004 mM tyrosine added
Protocol: (§1) In order to find the suitable condition for selection, cell growth was tested on a minimal plate containing various concentrations of tyrosine or PHCA (see Table 9).

[2] = test system: tyrosine-auxotrophic E. coli strain AT2471 containing pCA18Km; assay: Growth of tyrosine-auxotrophic E. coli on minimal plate with tyrosine; type: cell-based; set-up: key: −: no growth; +: very poor growth; ++: poor growth; +++: good growth; conditions: no PHCA
Protocol: as §1

[3] = Enzyme kinetics of purified wild type and mutant PAL, TAL activity (spectrophotometric); type: biochemical; conditions: tyrosine as substrate; for Km: Lineweaver-Burke plot; for kcat: from Vmax assuming four active sites
Protocol: (§2) The PAL or TAL activity of the purified enzymes were measured using a spectrophotometer according to Abell et al., “Phenylalanine Ammonia-lyase from Yeast Rhodotorula glutinis,” Methods Enzymol. 142:242-248 (1987). The spectrophotometric assay for PAL determination was initiated by the addition of the enzyme to a solution containing 1.0 mM L-phenylalanine and 50 mM Tris-HCl (pH 8.5). The reaction was then followed by monitoring the absorbance of the product, cinnamic acid, at 290 nm using a molar extinction coefficient of 9000 cm^−1. The assay was run over a 5 min period using an amount of enzyme that produced absorbance changes in the range of 0.0075 to 0.018/min. One unit of activity indicated deamination of 1.0 μmol of phenylalanine to cinnamic acid per minute. The TAL activity was similarly measured using tyrosine in the reaction solution. The absorbance of the para-hydroxycinnamic acid produced was followed at 315 nm and the activity was determined using an extinction coefficient of 10,000 cm^−1 for PHCA. One unit of activity indicated deamination of 1.0 μmol of tyrosine to para-hydroxycinnamic acid per minute.
(§3) A detailed enzyme kinetics analysis using the yeast wild type and the purified mutant PAL enzyme and tyrosine or phenylalanine as substrate, was carried out. The PAL and TAL activities were measured spectrophotometrically as described in the General Methods and the KM and Vmax were determined from its Lineweaver-Burke plot. The kcat was calculated from Vmax assuming the presence of four active sites in the active tetramer.

[4] = PAL specific activity in cell free extracts; type: biochemical; conditions: cell free extract of E. coli clones over-expressing PAL from pKK223-3
Protocol: as §2
(§4) The cell pellet was resuspended with 0.5 mL/g cells, 50 mM Tris-HCl buffer (pH 8.5) and disrupted by a single passage through the French Pressure Cell at 20,000 psi. The disrupted cells were then centrifuged for 30 min at 14,200×g to remove the unbroken cell mass. […]

[5] = TAL specific activity in cell free extracts; type: biochemical; conditions: cell free extract of E. coli clones over-expressing PAL from pKK223-3
Protocol: as §2, §4

[6] = Enzyme kinetics of purified wild type and mutant PAL, PAL activity (spectrophotometric); type: biochemical; conditions: phenylalanine as substrate; for Km: Lineweaver-Burke plot; for kcat: from Vmax assuming four active sites
Protocol: as §2, §3

[7] = Ratio of TAL to PAL catalytic efficiency of purified enzymes; type: biochemical
Protocol: as §3
The catalytic efficiency, defined as kcat/KM, was calculated for both the wild type and mutant enzyme. The ratio of the TAL catalytic efficiency versus the PAL of the wild type enzyme was 0.5 while that of the mutant enzymes had increased to 1.7 (see Table 11).

[8] = Whole cell TAL/PAL activity ratio (follow-up assay after high throughput screen); type: cell-based, E. coli
Protocol: The following assay was performed to confirm that fully active mutant PAL enzyme was produced in BL21(DE3) E. coli cells. E. coli cells were grown in LB medium overnight. One mL of cell culture was pelleted and resuspended in 1 mL of 50 mM Tris-HCl buffer (pH 8.5) containing 0.5 mM tyrosine (for TAL activity measurement) or phenylalanine (for PAL activity measurement). The reaction mixture was incubated on the shaker at 37 C. for 1 hr. The reaction mixture was filtrated using 0.2 μm pore size filter (Millipore, Bedford, Mass.), and injected into HPLC (Hewlett-Packard Company, Palo Alto, Calif.). TAL or PAL activity was determined by measuring the concentration of the resulting PHCA or cinnamate. […]
5,000 mutant colonies were picked from agarose plates and screened by high throughput assay (Example 20). The initial hits were further investigated by a follow-up assay to confirm screening results. The TAL and PAL activities were measured using the whole cell assay, described in Example 17, and then ratio of TAL/PAL activities was calculated. The following table summarizes results of the follow-up assay for four mutants with altered TAL/PAL ratios:
A total of 5,000 mutant colonies from these three libraries were screened by high throughput assay (Example 20). Initial hits were further investigated by a follow-up HPLC assay to confirm the screening results as described in Example 21. One mutant with improved TAL/PAL ratio was found (Table 19).

[9] = Hanson and Havir 1981; cited from earlier work
[10] = Whole cell PAL/TAL activity of colonies from the selection plates; type: cell-based, E. coli; conditions: whole cell assay
Protocol: An HPLC assay was developed for measuring the levels of cinnamic acid and PHCA formed by the whole cells. In a typical assay, following centrifugation of a culture grown in the medium of choice, 20-1000 μL of the supernatant was acidified with phosphoric acid, filtered through a 0.2 or 0.45 micron filter and analyzed by the HPLC to determine the concentration of PHCA and cinnamic acid in the growth medium. Alternatively, following centrifugation, the cells were resuspended in 100 mM Tris-HCl (pH 8.5) containing 1.0 mM tyrosine or 1.0 mM phenylalanine and incubated at room temperature for 1.0-16 h. A filtered aliquot (20-1000 μL) of this suspension was then analyzed.
The colonies that had appeared on the selection plates were analyzed for their PAL/TAL activity using the whole cell assay described in the general methods. […] Genetic analysis for the EP18Km-6 mutant was carried out. The plasmid DNA was purified from the mutant cells, and then re-transformed into E. coli. […] To better characterize the mutants, the following analyses were carried out.

[11] = Whole cell TAL activity assay (HPLC) in BL21(DE3) E. coli cells; type: cell-based; conditions: for TAL Activity (%): 0.5 mM tyrosine, 37 C, 1 hr
Protocol: The following assay was performed to confirm that fully active mutant PAL enzyme was produced in BL21(DE3) E. coli cells. E. coli cells were grown in LB medium overnight. One mL of cell culture was pelleted and resuspended in 1 mL of 50 mM Tris-HCl buffer (pH 8.5) containing 0.5 mM tyrosine (for TAL activity measurement) or phenylalanine (for PAL activity measurement). The reaction mixture was incubated on the shaker at 37 C. for 1 hr. The reaction mixture was filtrated using 0.2 μm pore size filter (Millipore, Bedford, Mass.), and injected into HPLC (Hewlett-Packard Company, Palo Alto, Calif.). TAL or PAL activity was determined by measuring the concentration of the resulting PHCA or cinnamate.
The truncation mutants were analyzed by measuring TAL activity using the whole cell assay described in Example 17. Table 15 summarizes the results:
The C-terminal truncation mutant was analyzed by measuring TAL and PAL activities using the whole cell assay described in Example 17, and pET17b-Km-6 was used as positive control.

[12] = Ratio of PAL to TAL specific activity; type: biochemical; conditions: purified enzyme
Protocol: The PAL or TAL activity of the purified enzymes were measured using a spectrophotometer according to Abell et al., “Phenylalanine Ammonia-lyase from Yeast Rhodotorula glutinis,” Methods Enzymol. […] The spectrophotometric assay for PAL determination was initiated by the addition of the enzyme to a solution containing 1.0 mM L-phenylalanine and 50 mM Tris-HCl (pH 8.5). The reaction was then followed by monitoring the absorbance of the product, cinnamic acid, at 290 nm using a molar extinction coefficient of 9000 cm^−1. The assay was run over a 5 min period using an amount of enzyme that produced absorbance changes in the range of 0.0075 to 0.018/min. One unit of activity indicated deamination of 1.0 μmol of phenylalanine to cinnamic acid per minute. The TAL activity was similarly measured using tyrosine in the reaction solution. The absorbance of the para-hydroxycinnamic acid produced was followed at 315 nm and the activity was determined using an extinction coefficient of 10,000 cm^−1 for PHCA. One unit of activity indicated deamination of 1.0 μmol of tyrosine to para-hydroxycinnamic acid per minute.
The PAL/TAL activity was determined as described above.

O=C(O)C=Cc1ccc(O)cc1 [PHCA, Para-hydroxycinnamic acid]
cell growth ([1]; 0.0001-0.0002 mM PHCA): +++
cell growth ([1]; 0.0003-0.0005 mM PHCA): +++
cell growth ([1]; 0.001-0.004 mM PHCA): +++
cell growth ([1]; 10 mM PHCA): −
cell growth ([1]; 1.0-2.0 mM PHCA): ++
cell growth ([1]; 4.0-6.0 mM PHCA): +
toxicity to the cells ([1]; high concentrations): toxic

N[C@@H](Cc1ccc(O)cc1)C(=O)O [Tyrosine, tyrosine]
cell growth ([2]; 0.0001-0.0002 mM tyrosine): −
cell growth ([2]; 0.0003-0.0005 mM tyrosine): +
cell growth ([2]; 0.001-0.004 mM tyrosine): +++

B1: Wild Type PAL: wildtype R. glutinis (Rhodosporidium toruloides) PAL enzyme, SEQ ID NO:8 (protein)
chain: MAPSLDSISHSFANGVASAKQAVNGASTNLAVAGSHLPTTQVTQVDIVEKMLAAPTDSTLELDGYSLNLGDVVSAARKGRPVRVKDSDEIRSKIDKSVEFLRSQLSMSVYGVTTGFGGSADTRTEDAISLQKALLEHQLCGVLPSSFDSFRLGRGLENSLPLEVVRGAMTIRVNSLTRGHSAVRLVVLEALTNFLNHGITPIVPLRGTISASGDLSPLSYIAAAISGHPDSKVHVVHEGKEKILYAREAMALFNLEPVVLGPKEGLGLVNGTAVSASMATLALHDAHMLSLLSQSLTAMTVEAMVGHAGSFHPFLHDVTRPHPTQIEVAGNIRKLLEGSRFAVHHEEEVKVKDDEGILRQDRYPLRTSPQWLGPLVSDLIHAHAVLTIEAGQSTTDNPLIDVENKTSHHGGNFQAAAVANTMEKTRLGLAQIGKLNFTQLTEMLNAGMNRGLPSCLAAEDPSLSYHCKGLDIAAAAYTSELGHLANPVTTHVQPAEMANQAVNSLALISARRTTESNDVLSLLLATHLYCVLQAIDLRAIEFEFKKQFGPAIVSLIDQHFGSAMTGSNLRDELVEKVNKTLAKRLEQTNSYDLVPRWHDAFSFAAGTVVEVLSSTSLSLAAVNAWKVAAAESAISLTRQVRETFWSAASTSSPALSYLSPRTQILYAFVREELGVKARRGDVFLGKQEVTIGSNVSKIYEAIKSGRINNVLLKMLA
Km [3]: 111 µM
kcat [3]: 0.46 s⁻¹
highest specific activity, PAL [4]: 0.244 U/mg protein
highest specific activity, TAL [5]: 0.0650 U/mg protein
Km [6]: 250 µM
kcat [6]: 2.09 s⁻¹
TAL/PAL ratio (catalytic efficiency) [7]: 0.5
TAL/PAL ratio [8]: 0.5
TAL/PAL ratio ([8]; regional mutant amino acid No. 492-503, Table 19): 0.5
TAL/PAL ratio ([8]; summary table of mutants): 0.5

B2: Rhodosporidium: PAL/TAL enzyme of the yeast Rhodosporidium, literature value (protein)
chain: B1 chain
ratio of TAL catalytic activity to PAL catalytic activity [9]: approximately 0.58

B3: EP18Km-6: mutant R. glutinis PAL enzyme having enhanced TAL activity, Ile540Thr, SEQ ID NO:10 (protein)
chain: B1 chain with I540T
Km [3]: 50 µM
kcat [3]: 0.63 s⁻¹
TAL activity ratio versus wild type cell [10]: enhanced TAL activity ratio
TAL/PAL activity of enzyme expressed from pET17b ([11]; BL21(DE3) E. coli cells): fully active
TAL Activity (%) ([11]; C-terminal truncation mutant in pET17b): 100%
TAL Activity (%) ([11]; N-terminus truncation mutants in pET17b): 100%
Km [6]: 333 µM
kcat [6]: 2.45 s⁻¹
TAL/PAL ratio (catalytic efficiency) [7]: 1.7
TAL/PAL ratio ([8]; regional mutants amino acid No. 120-280, Table 17): 1.7
TAL/PAL ratio ([8]; summary table of mutants): 1.7

B4: purified enzyme: purified PAL/TAL enzyme of Rhodosporidium toruloides (protein, UniProt P11544 1-716, looked up)
Phenylalanine/tyrosine …: B1 chain
PAL/TAL ratio [12]: 2.12
